Results: patent US7514215B2, “Sulfotransferase SULT2A1 sequence variants” (Mayo Foundation for Medical Education and Research, priority 2001, dated 2009)
Read-outs that look alike come from different tables or passages of the source.

Tested on: SULT2A1
Test: SULT2A1 enzyme activity assay: sulfate conjugation of DHEA with 35S-PAPS, COS-1 cytosol preparations of recombinant allozymes
Format: biochemical, human
Conditions: for Enzyme Activity (%): percentage of WT SULT2A1 enzyme activity, 5 μM DHEA, 0.4 μM 35S-PAPS, COS-1 cytosol, corrected for transfection efficiency; for Enzyme activity: immunoreactive protein: ratio of enzymatic activity to immunoreactive protein; for decrease in enzyme activity: reduction relative to wild type
Protocol: Activity of SULT2A1 polypeptides can be altered relative to the reference SULT2A1 polypeptide. […] Other allozymes can have increased activity relative to the reference SULT2A1 polypeptide. Activity of SULT2A1 polypeptides can be assessed in vitro using a sulfate acceptor substrate such as DHEA and a donor sulfate molecule such as PAPS. In general, recombinant SULT2A1 polypeptides can be incubated at 37° C. with 0.4 μM ^35S-PAPS and 5 μM DHEA in a potassium phosphate buffer (5 mM, pH 6.5). Reactions can be stopped by precipitating PAPS and SULT2A1 polypeptide (e.g., with barium hydroxide, barium acetate, and zinc sulfate). After centrifugation of the reaction, radioactivity in the supernatant is assessed. SULT2A1 activity is expressed as nmoles of sulfate conjugated product formed per hour of incubation. See, Campbell, N. R. C. et al., Biochem. Pharmacol., 36:1435-1446 (1987).
COS-1 cell expression: Five different SULT2A1 expression constructs were made using the pCR3.1 expression vector. Four of the constructs were designed to express SULT2A1 allozymes, while the remaining construct was designed to express a wild type SULT2A1 polypeptide. All SULT2A1 cDNA sequences containing SULT2A1 nucleotide sequence variants used to create the expression constructs were created by site directed mutagenesis using the method described by Ho et al., Gene 77(1):51-9 (1989). Each SULT2A1 cDNA was amplified by PCR and subcloned into the eukaryotic expression vector pCR3.1 (Promega, Madison, Wis.). After subcloning, all inserts were sequenced to assure that no spurious nucleotide point mutations had been introduced during the PCR amplifications. […] As a control, a transfection was also performed with “empty” pCR3.1, i.e., vector lacking an insert, to make it possible to correct for endogenous COS-1 cell SULT activity. The control plasmid pSV-β-galactosidase (Promega) was cotransfected with each SULT2A1 construct to make it possible to correct for transfection efficiency. Two independent transfections, each consisting of three separate plates, were performed with each of the expression constructs.
After 48 hours in culture, the transfected cells were harvested and high speed supernatant (HSS) cytosol preparations were prepared as described by Wood, T. C. et al., Biochem. Biophys. Res. Commun., 198:1119-1127 (1994). Aliquots of these cytosol preparations were stored at −80° C. prior to assay.
Enzyme Assays: β-galactosidase activity in each of the COS-1 HSS preparations was measured with the β-galactosidase Enzyme Assay System (Promega, Madison, Wis.). These HSS preparations of recombinant SULT2A1 allozymes were used for the activity studies without any further purification. The protein concentration of each recombinant protein preparation was determined by the dye-binding method of Bradford with bovine serum albumin (BSA) as a standard.
SULT2A1 enzyme activity was measured with an assay that involves sulfate conjugation of a sulfate acceptor substrate, DHEA, in the presence of the sulfate donor 3′-phosphoadenosine-5′-phosphosulfate (PAPS). See, Campbell, N. R. C. et al., Biochem. Pharmacol., 36:1435-1446 (1987). Briefly, 0.4 μM ^35S-PAPS and a HSS preparation were reacted with 5 μM DHEA in 5 mM potassium phosphate buffer at pH 6.5. […] Cytosol from COS-1 cells that had been transfected with empty pCR3.1 was used to correct for endogenous SULT activity. Because SULTs display profound substrate inhibition, DHEA concentrations that ranged from 100 pM to 1 mM were tested with each recombinant allozyme to ensure that the assays were performed at DHEA concentrations that yielded maximal activity for that allozyme. Enzyme activity was expressed as nanomoles (nmoles) of sulfate conjugated product formed per hour of incubation. Apparent Km values for PAPS were determined in the presence of 5 μM DHEA with six PAPS concentrations that varied from 0.0625 μM to 2 μM. […]

[1] = apparent Km for DHEA, read-out: DHEA Km
[2] = apparent Km for PAPS in the presence of 5 μM DHEA, read-out: PAPS Km

Molecule	activity relative to the reference SULT2A1 polypeptide (in words)	Km [1] [µM]	Km [2] [µM]	Enzyme Activity (%)	Enzyme activity: immunoreactive protein	decrease in enzyme activity [%]
Ala63Pro: SULT2A1 allozyme having a proline at amino acid residue 63 in place of alanine (protein, UniProt Q06520 1-285, looked up, variant A63P) Sulfotransferase 2A1: MSDDFLWFEGIAFPTMGFRSETLRKVRDEFVIRDEDVIILTYPKSGTNWLAEILCLMHSKGDPKWIQSVPIWERSPWVESEIGYTALSETESPRLFSSHLPIQLFPKSFFSSKAKVIYLMRNPRDVLVSGYFFWKNMKFIKKPKSWEEYFEWFCQGTVLYGSWFDHIHGWMPMREEKNFLLLSYEELKQDTGRTIEKICQFLGKTLEPEELNLILKNSSFQSMKENKMSNYSLLSVDYVVDKAQLLRKGVSGDWKNHFTVAQAEDFDKLFQEKMADLPRELFPWE	reduced activity	0.21 ± 0.01	0.0082 ± 0.00132	57	2.1	43
WT: recombinant wild type (reference) human SULT2A1 polypeptide, SEQ ID NO:3, expressed in COS-1 cells (protein, listed as Homo Sapiens) MSDDFLWFEGIAFPTMGFRSETLRKVRDEFVIRDEDVIILTYPKSGTNWLAEILCLMHSKGDAKWIQSVPIWERSPWVESEIGYTALSESESPRLFSSHLPIQLFPKSFFSSKAKVIYLMRNPRDVLVSGYFFWKNMKFIKKPKSWEEYFEWFCQGTVLYGSWFDHIHGWMPMREEKNFLLLSYEELKQDTGRTIEKICQFLGKTLEPEELNLILKNSSFQSMKENKMSNYSLLSVDYVVDKAQLLRKGVSGDWKNHFTVAQAEDFDKLFQEKMADLPRELFPWE		0.247 ± 0.071	0.0218 ± 0.00086	100	1.0	
63Pro/261Thr: SULT2A1 polypeptide with a proline at position 63 and a threonine at position 261 (double variant) (protein, UniProt Q06520 1-285, looked up, variant A63P A261T) Sulfotransferase 2A1: MSDDFLWFEGIAFPTMGFRSETLRKVRDEFVIRDEDVIILTYPKSGTNWLAEILCLMHSKGDPKWIQSVPIWERSPWVESEIGYTALSETESPRLFSSHLPIQLFPKSFFSSKAKVIYLMRNPRDVLVSGYFFWKNMKFIKKPKSWEEYFEWFCQGTVLYGSWFDHIHGWMPMREEKNFLLLSYEELKQDTGRTIEKICQFLGKTLEPEELNLILKNSSFQSMKENKMSNYSLLSVDYVVDKAQLLRKGVSGDWKNHFTVTQAEDFDKLFQEKMADLPRELFPWE	reduced activity	0.29 ± 0.012	0.0114 ± 0.0003	42	1.6	
Lys227Glu: SULT2A1 allozyme having a glutamate at amino acid residue 227 in place of a lysine (protein, UniProt Q06520 1-285, looked up, variant K227E) Sulfotransferase 2A1: MSDDFLWFEGIAFPTMGFRSETLRKVRDEFVIRDEDVIILTYPKSGTNWLAEILCLMHSKGDAKWIQSVPIWERSPWVESEIGYTALSETESPRLFSSHLPIQLFPKSFFSSKAKVIYLMRNPRDVLVSGYFFWKNMKFIKKPKSWEEYFEWFCQGTVLYGSWFDHIHGWMPMREEKNFLLLSYEELKQDTGRTIEKICQFLGKTLEPEELNLILKNSSFQSMKENEMSNYSLLSVDYVVDKAQLLRKGVSGDWKNHFTVAQAEDFDKLFQEKMADLPRELFPWE	reduced activity	0.905 ± 0.053	0.0102 ± 0.00096	15	7.5	
Ala261Thr: SULT2A1 allozyme having a threonine at amino acid 261 in place of an alanine (protein) MSDDFLWFEGIAFPTMGFRSETLRKVRDEFVIRDEDVIILTYPKSGTNWLAEILCLMHSKGDAKWIQSVPIWERSPWVESEIGYTALSESESPRLFSSHLPIQLFPKSFFSSKAKVIYLMRNPRDVLVSGYFFWKNMKFIKKPKSWEEYFEWFCQGTVLYGSWFDHIHGWMPMREEKNFLLLSYEELKQDTGRTIEKICQFLGKTLEPEELNLILKNSSFQSMKENKMSNYSLLSVDYVVDKAQLLRKGVSGDWKNHFTVTQAEDFDKLFQEKMADLPRELFPWE	comparable to the reference SULT2A1 polypeptide	0.245 ± 0.012	0.0227 ± 0.00062		1.2	85
